US20180264103A1 (ELITEIMMUNE, published 2018)

B1: fully human anti-RSV monoclonal antibody R66 (antibody, V domains shown)
VH: EVQLVESGGGLVQPGRSLRLSCTASGFTFADYSMTWVRQAPGKGLEWVGLIKRNAYGGTTEYAASVRGRFTISRDDSRSIAYLQMHSLKSEDTAVYFCLRGYSGYDWEGLDAFEVWGQGTMVTVSS
VL: DIQMTQSPSAMSASVGDRVTITCRASQGSSTYLAWFQQKPGKVPKRLIYAVSSLQSGVPSRFSGSGSGTEFTLTISSLQPEDSATYYCLQHNSFPLTFGQGTKVEIK
notes: expressed in 293T cells, Protein A purified; heavy chain about 50 kDa, light chain about 22 kDa; also called R66 antibody

Experiments:
[1] = target: RSV-F (Strain A2) (respiratory syncytial virus (Strain A2)) (UniProt P03420); test: ELISA, antigen coated on plate, same conditions as R66
[2] = target: RSV-F (Strain RSS-2) (respiratory syncytial virus (Strain RSS-2)) (UniProt P11209); test: as above
RSV-F (Strain A2) = target: T1, RSV-F (Strain A2) (respiratory syncytial virus (Strain A2), UniProt P03420 26-529); test: ELISA, antigen coated on plate, anti-human IgG-HRP detection
T1 construct: Bought protein (Sino Biological Inc.), coated on the ELISA plate; also called glycoprotein F; antigen F of RSV
Method: (§1) To prepare coating antigen solution, RSV-F (Strain A2) and RSV-F (Strain RSS-2) (purchased from Sino Biological Inc.) were diluted with PBS (1×) (pH 7.4) buffer to the final concentration of 2 ng/μl. 100 μl of the coating antigen solution was pipetted into each well of a 96-well plate, coated overnight at 2-8° C., and washed 5 times with PBST, then each well was added with 200 μl of blocking solution for blocking for 2 hours at 37° C., and washed 5 times with PBST for 1 minute each wash after completion of blocking.
(§2) Two parallel experiments were performed, and two blank wells were set up to replace the primary antibody with PBST, incubated for 90 minutes at 37° C. and then washed 5 times with PBST.
(§3) The secondary antibody was diluted 5,000 times with the antibody diluent (PBST+1% BSA). 100 μl of diluent was added to each well, incubated for 1 hour at 37° C., then washed 5 times with PBST, added with TMB substrate solution with 100 μl/well, incubated for 15 minutes at room temperature. After the completion of the incubation H₂SO₄ stop solution was added to terminate the reaction. The absorbance of OD₄₅₀ was read on the microplate reader.

RSV-F (Strain RSS-2) = target: T2, RSV-F (Strain RSS-2) (respiratory syncytial virus (Strain …, UniProt P11209 26-529)); test: as above
T2 construct: Bought protein (Sino Biological Inc.), coated on the ELISA plate; also called glycoprotein F; antigen F of RSV
T2 sequence (P11209 26-529): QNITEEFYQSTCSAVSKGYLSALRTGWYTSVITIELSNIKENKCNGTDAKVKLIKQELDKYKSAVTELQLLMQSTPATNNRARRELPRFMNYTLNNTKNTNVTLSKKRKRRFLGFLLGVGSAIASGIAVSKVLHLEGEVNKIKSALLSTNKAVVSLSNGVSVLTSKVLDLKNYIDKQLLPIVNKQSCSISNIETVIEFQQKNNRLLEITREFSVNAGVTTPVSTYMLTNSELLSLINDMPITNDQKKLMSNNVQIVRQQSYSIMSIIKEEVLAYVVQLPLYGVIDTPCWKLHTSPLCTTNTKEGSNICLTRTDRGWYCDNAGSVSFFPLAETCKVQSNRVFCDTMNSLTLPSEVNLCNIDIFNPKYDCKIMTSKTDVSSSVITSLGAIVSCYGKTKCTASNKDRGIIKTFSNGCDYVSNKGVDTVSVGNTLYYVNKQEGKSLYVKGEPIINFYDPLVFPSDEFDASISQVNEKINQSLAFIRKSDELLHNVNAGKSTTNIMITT
Method: as §1, §2, §3

Chain of RSV-F (Strain RSS-2) (respiratory syncytial virus (Strain RSS-2)) (P11209 26-529): as above
Chain of RSV-F (Strain A2) (respiratory syncytial virus (Strain A2)) (P03420 26-529): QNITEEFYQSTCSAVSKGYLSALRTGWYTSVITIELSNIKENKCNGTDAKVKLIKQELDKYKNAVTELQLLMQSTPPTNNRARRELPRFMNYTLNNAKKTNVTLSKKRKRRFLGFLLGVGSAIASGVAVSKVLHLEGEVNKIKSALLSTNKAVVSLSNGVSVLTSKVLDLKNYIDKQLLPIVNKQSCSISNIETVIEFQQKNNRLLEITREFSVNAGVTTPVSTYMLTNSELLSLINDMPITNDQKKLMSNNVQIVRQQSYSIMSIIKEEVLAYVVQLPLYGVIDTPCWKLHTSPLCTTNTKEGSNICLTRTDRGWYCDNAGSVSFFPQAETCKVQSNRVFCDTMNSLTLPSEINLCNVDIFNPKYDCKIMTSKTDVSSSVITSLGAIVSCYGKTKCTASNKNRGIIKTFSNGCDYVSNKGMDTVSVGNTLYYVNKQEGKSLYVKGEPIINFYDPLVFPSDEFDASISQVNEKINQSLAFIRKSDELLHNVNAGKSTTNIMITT
T1 sequence (P03420 26-529): as above

Row | Molecule | EC50 [1] [ng/mL] | EC50 [2] [ng/mL] | EC50 (RSV-F (Strain A2)) [ng/mL] | EC50 (RSV-F (Strain RSS-2)) [ng/mL]
1 | Palivizumab Synagis (antibody) | 4.88 | 1.88 | – | –
2 | B1 | – | – | 1.79 | 1.46
